In US20200362018:

T1: S. cerevisiae (Yeast) 20S proteasome, FLAG-tagged (Pre1), P22141
T1 sequence (P22141 1-198, looked up): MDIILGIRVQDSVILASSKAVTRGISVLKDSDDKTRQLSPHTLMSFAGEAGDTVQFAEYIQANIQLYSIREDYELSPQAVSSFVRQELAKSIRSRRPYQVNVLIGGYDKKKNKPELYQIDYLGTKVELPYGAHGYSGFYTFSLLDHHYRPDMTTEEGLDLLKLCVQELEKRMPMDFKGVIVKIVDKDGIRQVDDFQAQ

T2: T. acidophilum (Archaea) 20S proteasome, P25156
T2 chain 1: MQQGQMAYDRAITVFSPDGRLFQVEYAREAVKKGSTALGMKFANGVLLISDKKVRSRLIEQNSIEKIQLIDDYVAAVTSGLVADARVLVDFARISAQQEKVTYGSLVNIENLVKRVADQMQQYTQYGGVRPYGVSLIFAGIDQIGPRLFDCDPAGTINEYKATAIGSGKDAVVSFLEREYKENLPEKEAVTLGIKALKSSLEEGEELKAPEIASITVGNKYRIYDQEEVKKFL
T2 chain 2: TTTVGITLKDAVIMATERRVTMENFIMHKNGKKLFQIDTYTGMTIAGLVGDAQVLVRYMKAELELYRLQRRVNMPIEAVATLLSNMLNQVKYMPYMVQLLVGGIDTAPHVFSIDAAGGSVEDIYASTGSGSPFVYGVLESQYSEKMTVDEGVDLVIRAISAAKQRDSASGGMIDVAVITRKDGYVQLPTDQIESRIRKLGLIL

B1: human RBBP9 with a C-terminal 6His tag (protein)
chain: MASPSKAVIVPGNGGGDVTTHGWYGWVKKELEKIPGFQCLAKNMPDPITARESIWLPFMETELHCDEKTIIIGHSSGAIAAMRYAETHRVYAIVLVSAYTSDLGDENERASGYFTRPWQWEKIKANCPYIVQFGSTDDPFLPWKEQQEVADRLETKLHKFTDCGHFQNTEFHELITVVKSLLKVPA
B2: human CBR3 (recombinant, His tag removed) (protein)
chain: MSSCSRVALVTGANRGIGLAIARELCRQFSGDVVLTARDVARGQAAVQQLQAEGLSPRFHQLDIDDLQSIRALRDFLRKEYGGLNVLVNNAAVAFKSDDPMPFDIKAEMTLKTNFFATRNMCNELLPIMKPHGRVVNISSLQCLRAFENCSEDLQERFHSETLTEGDLVDLMKKFVEDTKNEVHEREGWPNSPYGVSKLGVTVLSRILARRLDEKRKADRILVNACCPGPVKTDMDGKDSIRTVEEGAETPVYLALLPPDATEPQGQLVHDKVVQNW
B3: human NQO2 (recombinant, His-TEV fragment removed) (protein)
chain: MAGKKVLIVYAHQEPKSFNGSLKNVAVDELSRQGCTVTVSDLYAMNLEPRATDKDITGTLSNPEVFNYGVETHEAYKQRSLASDITDEQKKVREADLVIFQFPLYWFSVPAILKGWMDRVLCQGFAFDIPGFYDSGLLQGKLALLSVTTGGTAEMYTKTGVNGDSRYFLWPLQHGTLHFCGFKVLAPQISFAPEIASEEERKGMVAAWSQRLQTIWKEEPIPCTAHWHFGQ
B4: human PGDH with a C-terminal 6His tag (protein)
chain: MHVNGKVALVTGAAQGIGRAFAEALLLKGAKVALVDWNLEAGVQCKAALDEQFEPQKTLFIQCDVADQQQLRDTFRKVVDHFGRLDILVNNAGVNNEKNWEKTLQINLVSVISGTYLGLDYMSKQNGGEGGIIINMSSLAGLMPVAQQPVYCASKHGIVGFTRSAALAANLMNSGVRLNAICPGFVNTAILESIEKEENMGQYIEYKDHIKDMIKYYGILDPPLIANGLITLIEDDALNGAIMKITTSKGIHFQDYDTTPFQAKTQ

Experiments:
[1] = target: R. norvegicus (Mammalian) 20S proteasome purified from rat liver
[2] = target: T1, S. cerevisiae (Yeast) 20S proteasome, …
[3] = target: T2, T. acidophilum (Archaea) 20S …
[4] = target: 20S proteasome (source not stated for the experiment)

Protein	in vitro degradation of oxidized calmodulin by purified mammalian 20S proteasomes [1]	in vitro degradation of α-synuclein by purified mammalian 20S proteasomes [1]	degradation of α-synuclein by the 20S proteasome, SDS-PAGE time course [2]	degradation of α-synuclein by the 20S proteasome, SDS-PAGE time course [3]	time-dependent degradation of α-synuclein by the 20S proteasome, SDS-PAGE with image analysis [4]
B1	OxCam degradation was inhibited by all the candidates	–	–	–	–
B2	OxCam degradation was inhibited by all the candidates	the majority of the CCRs successfully inhibited the degradation of α-synuclein, with the exception of RBBP9 and HRas	Human CBR3 inhibited 20S proteasomes from all tested species.	Human CBR3 inhibited 20S proteasomes from all tested species.	–
B3	OxCam degradation was inhibited by all the candidates	the majority of the CCRs successfully inhibited the degradation of α-synuclein, with the exception of RBBP9 and HRas	–	–	In the presence of NQO2, CBR3, PGDH, NRas, KRas and RhoA, however, there was a marked decrease in the degradation rate.
B4	OxCam degradation was inhibited by all the candidates	the majority of the CCRs successfully inhibited the degradation of α-synuclein, with the exception of RBBP9 and HRas	–	–	–
